Patent publication US20200407436A1 (published 2020)

Tests used:
mature human TGF-beta 2 [1] = target: T1, mature human TGF-beta 2 (human, UniProt P61812 303-414); assay: SPR Biacore T200, human TGF-beta amine-coupled (~20 RU), E. coli derived Fab as analyte; heterogeneous fit, component 1 (kd1; believed occluded)
T1 construct: also called TGFb2; TGFB2
T1 sequence: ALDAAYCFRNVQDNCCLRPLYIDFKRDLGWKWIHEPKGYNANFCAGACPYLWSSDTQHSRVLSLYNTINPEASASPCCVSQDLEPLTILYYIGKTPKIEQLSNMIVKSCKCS
Method: (§1) Human TGF-β isoforms 1, 2, and 3 (Peprotech) were immobilised on CMS Series S chip via amine coupling chemistry on Flowcell 2, 3 and 4 (respectively) to a level of approximately 20 RU. HBS-EP buffer (10 mM HEPES pH 7.4, 0.15 M NaCl, 3 mM EDTA, 0.05% Surfactant P20, GE Healthcare) was used as the running buffer. […] The surface was regenerated by 2×10 μL injection of 10 mM HCl at a flowrate of 10 uL/min.
(§2) Background subtraction binding curves were analysed using the T200 evaluation software (version 1.0; GE Healthcare) following standard procedures. Kinetic parameters were determined using heterogeneous fitting algorithm with RI=0), as described in Example 3, and the values are provided in Table 4.

mature human TGF-beta 3 [2] = target: T2, mature human TGF-beta 3 (human, UniProt P10600 301-412); assay: as above
T2 construct: also called TGFb3; TGFB3
T2 sequence: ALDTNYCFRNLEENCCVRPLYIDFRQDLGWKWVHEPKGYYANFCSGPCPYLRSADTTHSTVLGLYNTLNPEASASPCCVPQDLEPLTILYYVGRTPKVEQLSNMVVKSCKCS
Method: as §1, §2

mature human TGF-beta 1 [3] = target: T3, mature human TGF-beta 1 (human, UniProt P01137 279-390); assay: as above
T3 construct: Bought recombinant protein (Peprotech); also called TGFb1; TGFB1
T3 sequence (P01137 279-390 limits assumed): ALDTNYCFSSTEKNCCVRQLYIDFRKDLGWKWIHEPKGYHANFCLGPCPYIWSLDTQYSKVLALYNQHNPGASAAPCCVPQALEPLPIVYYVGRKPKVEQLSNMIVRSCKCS
Method: as §1, §2

mature human TGF-beta 1 [4] = target: T3, mature human TGF-beta 1; assay: SPR Biacore T200, human TGF-beta amine-coupled (~20 RU), E. coli derived Fab as analyte; heterogeneous fit, component 2 (ka2; believed unoccluded)
Method: as §1, §2

mature human TGF-beta 2 [5] = target: T1, mature human TGF-beta 2; assay: SPR Biacore T200, human TGF-beta amine-coupled (~20 RU), E. coli derived Fab as analyte; heterogeneous fit, component 1 (ka1; believed occluded)
Method: as §1, §2

mature human TGF-beta 3 [6] = target: T2, mature human TGF-beta 3; assay: as above
Method: as §1, §2

mature human TGF-beta 1 [7] = target: T3, mature human TGF-beta 1; assay: as above
Method: as §1, §2

mature human TGF-beta 2 [8] = target: T1, mature human TGF-beta 2; assay: SPR Biacore T200, human TGF-beta amine-coupled (~20 RU), E. coli derived Fab as analyte; heterogeneous fit, component 2 (kd2; believed unoccluded)
Method: as §1, §2

mature human TGF-beta 3 [9] = target: T2, mature human TGF-beta 3; assay: as above
Method: as §1, §2

mature human TGF-beta 1 [10] = target: T3, mature human TGF-beta 1; assay: as above
Method: as §1, §2

mature human TGF-beta 2 [11] = target: T1, mature human TGF-beta 2; assay: SPR Biacore T200, human TGF-beta amine-coupled (~20 RU), E. coli derived Fab as analyte; heterogeneous fit, component 2 (KD2; believed unoccluded)
Method: as §1, §2

mature human TGF-beta 3 [12] = target: T2, mature human TGF-beta 3; assay: as above
Method: as §1, §2

mature human TGF-beta 1 [13] = target: T3, mature human TGF-beta 1; assay: as above
Method: as §1, §2

mature human TGF-beta 2 [14] = target: T1, mature human TGF-beta 2; assay: SPR Biacore T200, human TGF-beta amine-coupled (~20 RU), E. coli derived Fab as analyte; heterogeneous fit, component 1 (KD1; believed occluded)
Method: as §1, §2

mature human TGF-beta 3 [15] = target: T2, mature human TGF-beta 3; assay: as above
Method: as §1, §2

mature human TGF-beta 1 [16] = target: T3, mature human TGF-beta 1; assay: as above
Method: as §1, §2

[17] = target: T4, full length TGF-beta 1 including the latency associated peptide (human, UniProt P01137 30-390); assay: analytical gel filtration
T4 construct: also called latent TGF-beta 1; human Latency-associated Peptide and TGF-beta 1
T4 sequence (P01137 30-390 limits assumed): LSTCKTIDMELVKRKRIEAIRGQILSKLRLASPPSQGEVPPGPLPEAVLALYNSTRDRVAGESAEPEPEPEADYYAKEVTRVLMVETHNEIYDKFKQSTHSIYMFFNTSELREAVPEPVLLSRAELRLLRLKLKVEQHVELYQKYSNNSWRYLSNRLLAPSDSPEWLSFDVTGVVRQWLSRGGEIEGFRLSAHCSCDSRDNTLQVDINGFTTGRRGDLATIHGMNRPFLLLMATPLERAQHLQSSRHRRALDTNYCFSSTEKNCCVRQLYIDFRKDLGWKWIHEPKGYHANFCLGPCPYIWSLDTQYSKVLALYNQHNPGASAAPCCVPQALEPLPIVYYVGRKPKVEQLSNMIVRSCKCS

mature human TGF-beta 2 [18] = target: T1, mature human TGF-beta 2; assay: cell-based or functional assay
mature human TGF-beta 3 [19] = target: T2, mature human TGF-beta 3; assay: cell-based or functional assay
mature human TGF-beta 1 [20] = target: T3, mature human TGF-beta 1; assay: cell-based or functional assay
[21] = target: TGF-beta produced and activated by BxPC3 cells; assay: cell-based or functional assay

B1: humanised antibody 4856 Fab graft gL3gH13 (Fab, V domains shown)
VH: EVQLVESGGGLVKPGGSLRLSCAASGFSLSSYDMSWVRQAPGKGLEWIGIIYGGSGSTWYASWAKGRFTISRDSAKNSVYLQMNSLRAEDTAVYYCARGRDAGAGGSRNGYSLWGQGTLVTVSS
VL: AYDMTQSPSTLSASVGDRVTITCQASESIYSGLAWYQQKPGKAPKLLIYAASDLASGVPSRFSGSGSGTEYTLTISSLQPDDFATYYCQQTWTDGGIDNPFGGGTKVEIKR
notes: Human gamma-1 CH1 (G1m17) and human C-kappa (K1m3); also called 4856gL3gH13
Q: B1 was tested. Which koff (mature human TGF-beta 2 [1]) did it give?
A: Its koff is 0.000211 s⁻¹.

Q: What about the koff (mature human TGF-beta 3 [2]) of the same binder?
A: The koff was 0.00146 s⁻¹.

Q: What about the koff (mature human TGF-beta 1 [3]) of the same binder?
A: Its koff is 0.000709 s⁻¹.

Q: And the kon (mature human TGF-beta 1 [4])?
A: Its kon is 704000 M⁻¹ s⁻¹.

Q: What about the kon (mature human TGF-beta 2 [5]) of the same binder?
A: The kon was 57700 M⁻¹ s⁻¹.

Q: And the kon (mature human TGF-beta 3 [6])?
A: Its kon is 93200 M⁻¹ s⁻¹.

Q: What about the kon (mature human TGF-beta 1 [7]) of the same binder?
A: Its kon is 74900 M⁻¹ s⁻¹.

Q: What about the koff (mature human TGF-beta 2 [8]) of the same binder?
A: Its koff is 0.00017 s⁻¹.

Q: What about the koff (mature human TGF-beta 3 [9]) of the same binder?
A: The koff was 0.00339 s⁻¹.

Q: What about the koff (mature human TGF-beta 1 [10]) of the same binder?
A: Its koff is 5.56e-05 s⁻¹.

Q: What about the Kd (mature human TGF-beta 2 [11]) of the same binder?
A: The Kd was 0.196 nM.

Q: What about the Kd (mature human TGF-beta 3 [12]) of the same binder?
A: Its Kd is 1.72 nM.

Q: What about the Kd (mature human TGF-beta 1 [13]) of the same binder?
A: The Kd was 0.0808 nM.

Q: What about the Kd (mature human TGF-beta 2 [14]) of the same binder?
A: The Kd was 3.67 nM.

Q: What about the Kd (mature human TGF-beta 3 [15]) of the same binder?
A: The Kd was 15.7 nM.

Q: And the Kd (mature human TGF-beta 1 [16])?
A: Its Kd is 9.48 nM.

Q: Does B1 bind [17]?
A: Result: no binding

Q: What about the “Geometric mean IC50, HEK-Blue TGF-beta reporter gene assay” value (mature human TGF-beta 2 [18]) of the same binder?
A: Its value is 0.01 nM.

Q: And the “Geometric mean IC50, HEK-Blue TGF-beta reporter gene assay” value (mature human TGF-beta 3 [19])?
A: Its value is 0.475 nM.

Q: What about the “Geometric mean IC50, HEK-Blue TGF-beta reporter gene assay” value (mature human TGF-beta 1 [20]) of the same binder?
A: Its value is 0.074 nM.

Q: And the “Geometric mean IC50, BxPC3 and HEK-Blue TGF-beta reporter gene co-culture assay” value [21]?
A: Its value is 3.95 nM.
